According to patent US20250074980A1 (BRIGHAM AND WOMEN S HOSPITAL, published 2025):

T1: His-tagged CEACAM1 (human, UniProt P13688 35-428)
T1 construct: 45 kDa SPR analyte; also called CEACAM1-HIS; CEACAM1 analyte
T1 sequence: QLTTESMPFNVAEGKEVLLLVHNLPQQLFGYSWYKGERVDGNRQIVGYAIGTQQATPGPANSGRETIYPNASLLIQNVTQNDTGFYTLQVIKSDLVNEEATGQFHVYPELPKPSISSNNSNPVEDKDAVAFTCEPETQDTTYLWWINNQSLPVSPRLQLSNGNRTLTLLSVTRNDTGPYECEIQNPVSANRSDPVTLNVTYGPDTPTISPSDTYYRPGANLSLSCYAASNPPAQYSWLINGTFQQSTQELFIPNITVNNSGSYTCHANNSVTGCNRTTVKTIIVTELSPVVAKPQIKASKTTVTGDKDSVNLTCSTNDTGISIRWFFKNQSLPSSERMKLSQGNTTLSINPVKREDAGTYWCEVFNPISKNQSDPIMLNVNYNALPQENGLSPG

T2: CEACAM8 on transfected HeLa cells (human, UniProt P31997 35-320)
T2 construct: whole, on cells; also called HeLa-CEACAM8; HeLa C8
T2 sequence (looked up): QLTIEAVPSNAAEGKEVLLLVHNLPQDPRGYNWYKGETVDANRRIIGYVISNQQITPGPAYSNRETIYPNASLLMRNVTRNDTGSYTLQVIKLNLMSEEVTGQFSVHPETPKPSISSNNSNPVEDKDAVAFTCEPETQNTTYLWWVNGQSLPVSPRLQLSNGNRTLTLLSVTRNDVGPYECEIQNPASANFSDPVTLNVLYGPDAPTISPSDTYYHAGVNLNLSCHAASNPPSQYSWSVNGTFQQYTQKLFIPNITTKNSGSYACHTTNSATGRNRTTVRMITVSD

T3: CEACAM3 on transfected HeLa cells (human, UniProt P40198 35-252)
T3 construct: whole, on cells; also called HeLa-CEACAM3; HeLa C3
T3 sequence (looked up): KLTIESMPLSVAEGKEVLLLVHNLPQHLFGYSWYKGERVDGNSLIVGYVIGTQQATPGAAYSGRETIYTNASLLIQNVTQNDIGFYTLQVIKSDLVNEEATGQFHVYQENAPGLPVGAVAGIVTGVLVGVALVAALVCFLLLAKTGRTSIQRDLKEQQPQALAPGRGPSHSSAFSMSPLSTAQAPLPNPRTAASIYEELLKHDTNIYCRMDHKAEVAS

B1: chimeric antibody VH0/Vκ0 (antibody, IgG4, V domains shown)
VH: EVQLVESGGDLVKPGGSLKLACAASGFIFSSHGMSWVRQTPDKRLEWVATISSGGTYTYYPDSVKGRFTISRDNDKNTLYLQMNSLKSEDTAMYYCARHDFDYDAAWFAYWGQGTLVTVSS
VL: QIVLTQSPALMSASPGVKVTMTCSANSSVSYMYWYRQKPRSSPKPWIYLTSNLASGVPARFSGSGSGTSYSLTISSMEAEDAATYYCQQWSSNPPTFGSGTKLEIK
notes: IgG4 (S241P), kappa; also called VH0/Vκ0 (control); Chimeric VH0/Vκ0
B2: CP08H03/Vκ8 S29A (antibody, IgG4, V domains shown)
VH: EVQLLESGGGLVQPGGSLRLSCAASGFIFSSHGMSWVRQAPGKGLEWVATISSGGTYTYYPDSVKGRFTISRDNSKNTLYLQMNSLKAEDTAMYYCARHDFDYFPYWFAHWGQGTLVTVSS
VL: EIVLTQSPATLSLSPGERATLSCRANSAVSYMYWYQQKPGQAPRPWIYLTSNRATGVPARFSGSGSGTDYTLTISSLEPEDFAVYYCQQWSSNPPTFGQGTKLEIK
notes: IgG4 (S241P), kappa; also called CP08_H03/Parent VL; CP08_H03/Parental

Experiments:
[1] = biological target: T1, His-tagged CEACAM1; test: SPR multi-cycle, IgG captured
[2] = biological target: T2, CEACAM8 on transfected HeLa cells; test: flow cytometry, transfected HeLa
Summary of the method: (§1)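 Flow cytometry was done on HeLa cells stably expressing single CEACAM family members, cultured in DMEM with 10% fetal bovine serum at 37° C, 5.0% CO₂, and stained with the test antibody, then a fluorochrome-conjugated isotype-specific secondary antibody, with DAPI for viability. Staining of each transfectant serves as the readout of binding selectivity.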

[3] = biological target: T3, CEACAM3 on transfected HeLa cells; test: flow cytometry, transfected HeLa
Summary of the method: as §1

[4] = biological target: T2, CEACAM8 on transfected HeLa cells; test: flow cytometry titration, HeLa-CEACAM8 transfectants, anti-human IgG4 FITC
Method: FIGS. 31A and 31B show flow cytometry analyses of stable HeLa CEACAM1 (HeLa C1) transfectant, stable HeLa CEACAM3 transfectant (HeLa C3), stable HeLa CEACAM5 transfectant (HeLa C5), stable HeLa CEACAM6 transfectant (HeLa C6), and stable HeLa CEACAM8 transfectant (HeLa C8). FIG. 31A: 5×10\hat{ }4 indicated HeLa transfectants were washed with staining buffer and CP08H03/Vκ8 S29A (labeled “CP08”, left) or CEACAM1 antibody CM-24 was incubated at room temperature for 30 min, washed twice with staining buffer, and stained for anti-human IgG4 Fluorescein isothiocyanate (FITC) conjugated secondary antibody at room temperature for 20 min. Fluorescence intensities were determined by flow cytometry. Live cells were determined by 4′,6-diamidino-2-phenylindole (DAPI) staining as shown on the y-axis. Staining with the respective CEACAM1 antibody is shown on the x-axis. […]
The cervical adenocarcinoma cell line HeLa (ATCC No CCL-2) as well as transfected cell lines HeLaCEACAM1, HeLaCEACAM3, HeLaCEACAM5, HeLaCEACAM6 and HeLaCEACAM8 used for flow cytometry experiments were cultured at 37° C., 5.0% CO₂ in Dulbecco's modified Eagle's medium supplemented with 10% fetal bovine serum, penicillin (100 U/ml) and dihydrostreptomycin (100 μg/ml). […] Data were acquired with a Cytoflex flow cytometer (Invitrogen) and analyzed with FlowJo software (TreeStar, V7.6.5 for Windows).

| Binder | relative KD to VH0/Vκ0 [1] | binding result [2] | binding result [3] | binding result [4] |
| --- | --- | --- | --- | --- |
| B1 | 1 | no binding | no binding |  |
| B2 |  |  |  | no binding (tested: 100 ug/ml) |
